Source: publication PMC7442640, “The oligomeric assembly of galectin-11 is critical for anti-parasitic activity in sheep (Ovis aries)” (Communications Biology, 2020)

Legend:
[1] = target: galectin-11 (LGALS-11) isoform 2 of sheep (Ovis aries) (sheep (Ovis aries)); test: AUC; sedimentation velocity, c(s) analysis with SEDFIT; 0.10, 0.30 and 0.90 mg/ml; 20 mM Tris-HCl pH 8.0, 100 mM NaCl, 0.5 mM TCEP; 20 °C; absorbance at 280 nm
[2] = target: galectin-11 (LGALS-11) isoform 2 of sheep (Ovis aries) (sheep (Ovis aries))
[3] = target: T1, LGALS-11 isoform 1 (galectin-11) (Ovis aries, UniProt A0A0A7EMW6); test: X-ray crystallography; assay type: binding; settings: 2.40 Å complex structure; carbohydrate recognition domain (R53, N64, E74 hydrogen bonds; V62, W71 contacts)
T1 construct: gene LGALS15; recombinant, modified pET-28, E. coli BL21(DE3); alignment over 137 residues; homotetramer; natural variant with L9 and D124
T1 sequence (A0A0A7EMW6 1-137): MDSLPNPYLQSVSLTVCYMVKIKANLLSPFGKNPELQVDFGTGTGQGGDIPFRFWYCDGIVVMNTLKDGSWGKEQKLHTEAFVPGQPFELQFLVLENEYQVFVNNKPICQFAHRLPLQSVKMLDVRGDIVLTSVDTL

[4] = target: galectin-11 (LGALS-11) isoform 1 of sheep (Ovis aries) (sheep (Ovis aries)); test: AUC; sedimentation velocity, c(s) analysis with SEDFIT; 0.10, 0.30 and 0.90 mg/ml; 20 mM Tris-HCl pH 8.0, 100 mM NaCl, 0.5 mM TCEP; 20 °C; absorbance at 280 nm
[5] = target: galectin-11 (LGALS-11) isoform 1 of sheep (Ovis aries) (sheep (Ovis aries))

“galectin-11 (LGALS-11) isoform 2 of sheep (Ovis aries) (natural protein)” was tested. Which stoichiometry N [1] did it give?
The stoichiometry N was 2.

And the L4s of H. contortus with internal or cuticular damage after 72 h with isoform 2 [2]?
The L4s of H. contortus with internal or cuticular damage after 72 h with isoform 2 was < 10%.

How did the X-ray crystallography [3] turn out when `OC[C@H]1O[C@@H](O)[C@H](O)[C@@H](O)[C@H]1O` [β-D-galactose] was run?
The X-ray crystallography was “This galactose bound directly to the residues present in the four adjacent strands”.

Which stoichiometry N [4] does the source give for “galectin-11 (LGALS-11) isoform 1 of sheep (Ovis aries) (natural protein)” here?
Its stoichiometry N is 4.

And the L4s of H. contortus with cuticular damage, shrunken soma and internal granules after 72 h with isoform 1 [5]?
The L4s of H. contortus with cuticular damage, shrunken soma and internal granules after 72 h with isoform 1 was > 95%.

What about the xL3s of H. contortus that did not develop to L4s when exposed to isoform 1 (1.0 mg/ml) [5] of the same compound?
The xL3s of H. contortus that did not develop to L4s when exposed to isoform 1 (1.0 mg/ml) was 85%.
